Positions count from the first letter of the chain named.
T1: human CCR4 (human, UniProt P51679 1-360)
T1 construct: also called hCCR4; human CCR4+ cells
T1 sequence: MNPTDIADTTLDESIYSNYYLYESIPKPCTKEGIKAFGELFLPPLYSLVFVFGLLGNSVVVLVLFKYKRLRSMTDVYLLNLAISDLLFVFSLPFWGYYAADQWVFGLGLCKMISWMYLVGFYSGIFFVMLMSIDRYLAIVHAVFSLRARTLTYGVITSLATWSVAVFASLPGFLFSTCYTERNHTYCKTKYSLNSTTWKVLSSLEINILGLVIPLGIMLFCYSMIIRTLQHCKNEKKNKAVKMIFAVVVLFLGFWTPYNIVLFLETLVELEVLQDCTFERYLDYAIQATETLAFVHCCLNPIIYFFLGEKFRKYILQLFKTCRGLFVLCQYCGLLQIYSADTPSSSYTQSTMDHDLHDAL

T2: rabbit CCR8 (rabbit)
T2 construct: Transiently expressed on HEK293 cells; also called HEK293-rabbit CCR8 cells; rabbit CCR8+ cells
T2 chain: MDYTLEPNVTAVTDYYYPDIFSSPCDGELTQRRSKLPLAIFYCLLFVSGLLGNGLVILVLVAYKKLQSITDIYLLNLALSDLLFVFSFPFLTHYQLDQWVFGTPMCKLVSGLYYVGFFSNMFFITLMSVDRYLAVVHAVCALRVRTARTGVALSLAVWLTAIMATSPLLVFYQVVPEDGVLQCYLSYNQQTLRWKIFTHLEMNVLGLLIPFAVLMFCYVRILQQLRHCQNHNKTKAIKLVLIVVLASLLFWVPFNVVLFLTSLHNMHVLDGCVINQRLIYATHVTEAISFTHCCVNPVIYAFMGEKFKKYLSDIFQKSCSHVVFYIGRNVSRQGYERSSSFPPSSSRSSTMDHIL

B1: 29A8 Fab antibody (Fab, V domains shown)
VH: EVQLVESGGGLVQPKGSLKLSCAASGFTFNAFAMNWVRQAPGKGLEWVARIRSKSNNYATYYADSVIDRFTISRDDSQSMLYLQMNNLKTEDTAMYYCVRGKEAGAYYAMDYWGQGTSVTVSS
VL: DIVMTQAAPSVPVTPGESVSISCRSSKSLLHSNGNTYLYWFLQRPGQSPQLLIYRMSNLASGVPDRFSGSGSGTAFTLRISKVEAEDVGVYYCMQHLEYPFTFGGGTKLEIK
notes: detected with anti-human IgG F(ab')2; also called clone 29A8
B2: 144D2 anti-CCR8 chimeric antibody (antibody, V domains shown)
VH: B1 VH
VL: B1 VL with K82R, F101L, G105A
B3: 30A7 Fab antibody (Fab, V domains shown)
VH: B1 VH with E1Q, A31T, F32Y, N57Y, I67K, V99L
VL: B1 VL with K82R, G105A
notes: also called clone 30A7
B4: 87D8 anti-CCR8 chimeric antibody (antibody, V domains shown)
VH: B1 VH with K19R, A31T, F32Y, V48I, I67K
VL: B1 VL with K82R, F101L, G105A, I111L
B5: h87D8 H2K4 hIgG1 e5 (antibody)
heavy: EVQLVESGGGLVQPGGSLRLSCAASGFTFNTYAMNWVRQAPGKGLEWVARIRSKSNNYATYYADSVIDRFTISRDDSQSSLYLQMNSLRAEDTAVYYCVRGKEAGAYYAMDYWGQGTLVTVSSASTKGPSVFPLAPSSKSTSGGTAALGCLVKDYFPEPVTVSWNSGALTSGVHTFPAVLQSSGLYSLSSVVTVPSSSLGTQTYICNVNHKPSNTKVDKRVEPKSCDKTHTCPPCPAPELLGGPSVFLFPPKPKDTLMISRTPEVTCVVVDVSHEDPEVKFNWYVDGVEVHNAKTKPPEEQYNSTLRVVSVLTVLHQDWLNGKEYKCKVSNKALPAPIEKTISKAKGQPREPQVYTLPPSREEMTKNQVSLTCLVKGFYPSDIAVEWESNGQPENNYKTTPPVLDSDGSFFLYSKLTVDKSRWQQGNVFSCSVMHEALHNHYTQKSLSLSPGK
light: DIVMTQSPLSLPVTPGEPASISCRSSKSLLHSNYNTYLYWFLQKPGQSPQLLIYRTSNLASGVPDRFSGSGSGTDFTLKISRVEAEDVGVYYCMQHLEYPLTFGQGTKLEIKRTVAAPSVFIFPPSDEQLKSGTASVVCLLNNFYPREAKVQWKVDNALQSGNSQESVTEQDSKDSTYSLSSTLTLSKADYEKHKVYACEVTHQGLSSPVTKSFNRGEC
notes: also called h87D8 H2K4 e5; h87D8H2K4e5; copies: 2 + 2
B6: h87D8 H2K4 hIgG1 (antibody)
heavy: not shown
light: B5 light
notes: Humanized, wild-type human IgG1 Fc; also called h87D8 VHv2+h87D8 VKv4; copies: 2 + 2

Legend:
human CCR4 = molecular target: T1, human CCR4; assay: flow cytometry of purified Fab on cells stably expressing human CCR4
Description: (§1) The positive clones obtained in example 1 were re-induced to express and purified to obtain a Fab antibody. The binding to cells stably expressing human CCR8, cynomolgus monkey CCR8 and human CCR4 was tested respectively, 5×10⁴ test cells were added to each well of a 96-well U-shaped plate and centrifuged to discard the supernatant, 100 μL/well of the purified Fab antibody was added and the mixture was incubated on ice for 60 minutes. After washing away the unbound primary antibody, 50 μL of a secondary antibody solution (Anti-human IgG, F(ab′)2-AF647, Jackson Immuno Research) was added to each well and the mixture was incubated on ice for 30 minutes. After washing, 50 μL of a PI/BSA solution at 5 μg/mL was added to each well and the mixture was incubated on ice for 5 minutes. Then excess secondary antibody was washed away with 0.5% BSA, the cells were resuspended by adding a PBS solution, and binding of the antibody to the cells was detected using a flow cytometer (Intellicyte iQue).

cynomolgus monkey CCR8 [1] = molecular target: T3, cynomolgus monkey CCR8 (cynomolgus monkey, UniProt O97665 1-356 (rhesus entry)); assay: flow cytometry of purified Fab on cells stably expressing cynomolgus monkey CCR8
T3 construct: Full-length, stably expressed on CHO cells; also called cynoCCR8; CHO-cynoCCR8
T3 sequence (O97665 other isoform, or with tags, fused parts or gaps): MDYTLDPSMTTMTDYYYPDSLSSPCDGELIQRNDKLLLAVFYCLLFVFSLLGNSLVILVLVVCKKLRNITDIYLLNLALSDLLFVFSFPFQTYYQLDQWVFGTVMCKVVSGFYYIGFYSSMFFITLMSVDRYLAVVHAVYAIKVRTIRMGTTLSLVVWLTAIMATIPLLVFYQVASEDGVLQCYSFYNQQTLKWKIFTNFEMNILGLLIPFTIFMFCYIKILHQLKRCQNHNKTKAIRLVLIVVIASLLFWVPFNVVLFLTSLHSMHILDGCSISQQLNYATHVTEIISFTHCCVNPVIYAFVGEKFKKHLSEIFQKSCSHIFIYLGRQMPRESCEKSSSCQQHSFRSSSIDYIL
Description: as §1

human CCR8 [2] = molecular target: T4, human CCR8 (human, UniProt P51685 1-355); assay: flow cytometry, chimeric IgG on CHO-hCCR8 cells
T4 construct: Full-length human CCR8 stably expressed on CHO or HEK293 cells; also endogenous on HuT78 cells in one ADCC assay; also called hCCR8; CHO-hCCR8
T4 sequence (P51685 whole entry): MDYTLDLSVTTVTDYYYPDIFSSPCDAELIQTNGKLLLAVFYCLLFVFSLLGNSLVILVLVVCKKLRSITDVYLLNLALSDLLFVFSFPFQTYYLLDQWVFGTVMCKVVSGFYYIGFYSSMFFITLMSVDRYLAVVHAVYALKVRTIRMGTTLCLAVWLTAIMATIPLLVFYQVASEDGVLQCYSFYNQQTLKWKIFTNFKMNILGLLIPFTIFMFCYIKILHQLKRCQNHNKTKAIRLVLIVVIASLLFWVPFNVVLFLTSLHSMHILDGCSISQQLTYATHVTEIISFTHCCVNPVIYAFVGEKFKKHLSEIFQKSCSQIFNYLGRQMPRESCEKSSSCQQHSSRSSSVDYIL
Description: (§2) 5×10⁴ CHO-hCCR8 or CHO-cynoCCR8 cells were added per well in a 96-well U-shaped plate and centrifuged to discard the supernatant, 100 μL of a gradiently diluted anti-CCR8 chimeric antibody or anti-KLH isotype control antibody was added per well and the mixture was incubated on ice for 60 minutes. After the unbound primary antibody was washed away, 50 μL of a secondary antibody AlexaFluro647 anti-human IgG (Jackson Immuno Research #109-606-170) was added per well and the mixture was incubated on ice for 30 minutes. After the washing, 50 μL of 5 μg/mL of a PI/BSA solution was added to each well and the mixture was incubated on ice for 5 minutes. Then excess secondary antibody was washed away with 0.5% BSA, the cells were resuspended by adding a PBS solution, and binding of the antibody to the cells was detected using a flow cytometer (Intellicyte iQue). The fluorescence value of a Pi-negative cell population was analyzed. Cell-binding curves were fitted by Graphpad Prism 7 (FIG. 2). The chimeric antibodies of 87D8, 102H5, 109F6, 110G2, 113B3, 139A9, 144D2, etc. all bound with high affinities to human CCR8+ cells CHO-hCCR8 and cynomolgus monkey CCR8+ cells CHO-cynoCCR8.

cynomolgus monkey CCR8 [3] = molecular target: T3, cynomolgus monkey CCR8; assay: flow cytometry, chimeric IgG on CHO-cynoCCR8 cells
Description: as §2

cynomolgus monkey CCR8 [4] = molecular target: T3, cynomolgus monkey CCR8; assay: flow cytometry on CHO-cynoCCR8 cells, parental chimeric antibody
Description: (§3) 5×10⁴ CHO-hCCR8 or CHO-cynoCCR8 cells were added per well in a 96-well U-shaped plate and centrifuged to discard the supernatant. 100 μL of a gradiently diluted anti-CCR8 chimeric antibody was added per well and the mixture was incubated on ice for 60 minutes. After the unbound primary antibody was washed away, 50 μL, of a secondary antibody AlexaFluro647 anti-human IgG (Jackson Immuno Research #109-606-170) was added per well and the mixture was incubated on ice for 30 minutes. After the washing, 50 μL of 5 μg/mL of a Pi/BSA solution was added to each well and the mixture was incubated on ice for 5 minutes. Then excess secondary antibody was washed away with 0.5% BSA, the cells were resuspended by adding a PBS solution, and binding of the antibody to the cells was detected using a flow cytometer (BD Celesta). The fluorescence value of a PI-negative cell population was analyzed. Cell-binding curves were fitted by Graphpad Prism 7.

human CCR8 [5] = molecular target: T4, human CCR8; assay: flow cytometry on CHO-hCCR8 cells, parental chimeric antibody
Description: as §3

human CCR8 [6] = molecular target: T4, human CCR8; assay: cell-based or functional assay
human CCR8 [7] = molecular target: T4, human CCR8; assay: cell-based or functional assay; remark: listed apart in the source
human CCR8 [8] = molecular target: T4, human CCR8; assay: cell-based or functional assay; remark: listed apart in the source
FcγRIIIAV158 = molecular target: T5, FcγRIIIAV158 (UniProt P08637 17-208); assay: SPR (Biacore T200), antibody captured by anti-human IgG F(ab')2 on CM5, FcγRIIIA as analyte; FcγRIIIAV158
T5 construct: V158 allotype; also called FcγRIIIA158V
T5 sequence (P08637 17-208 F176V limits assumed): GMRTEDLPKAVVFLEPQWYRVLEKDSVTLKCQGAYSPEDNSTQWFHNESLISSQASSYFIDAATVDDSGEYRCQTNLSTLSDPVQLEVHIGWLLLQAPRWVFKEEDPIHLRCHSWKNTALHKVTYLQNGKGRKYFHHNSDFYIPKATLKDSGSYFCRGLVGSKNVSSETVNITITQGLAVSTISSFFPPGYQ
Description: (§4) The affinities of the Fc function-enhanced humanized CCR8 antibodies to FcγRIIIAV158 and FcγRIIIAF158 were detected by using a surface plasmon resonance technology (SPR/Biacore T200). A coupling reagent Amine Coupling Kit (GE Healthcare BR-1000-50) was used to couple Goat Anti-Human IgG F(ab′)2 to the surface of a CM5 chip. h87D8 H2K4 e5 or h87D8 H2K4 was captured through high-affinity binding with the antibodies and then gradiently diluted FcγRIIIAV158 or FcγRIIIAF158 was injected in sequence. The binding time was set to be 120 seconds, the dissociation time was set to be 200 seconds, regeneration was performed for 30 seconds by 10 mM Glycine-HCl with the pH value of 1.75, and the flow rate was set to be […]. The measured data were fitted to obtain an equilibrium dissociation constant. The affinities of h87D8 H2K4 e5 or h87D8 H2K4 to FcγRIIIAV158 and FcγRIIIAF158 were respectively measured. […] The binding of h87D8 H2K4 e5 to FcγRIIIAV158 and FcγRIIIAF158 was stronger than that of h87D8 H2K4.

rabbit CCR8 = molecular target: T2, rabbit CCR8; assay: flow cytometry on HEK293-rabbit CCR8 cells
Description: A lentiviral vector plasmid containing rabbit CCR8 was constructed by using a rabbit CCR8 cDNA (biosynthesized by GENEWIZ, Suzhou and having the amino acid sequence shown in SEQ ID NO. 112) as a template. The lentiviral vector plasmid containing rabbit CCR8 was transfected into HEK293 cells (hereinafter referred to HEK293-rabbit CCR8 cells) by using PEI MAX® (Polysciences 9002-98-6) as a transfection reagent referring to instructions of a transfection reagent. 24 hours after the transfection, 5×10⁴ HEK293-rabbit CCR8 cells were added per well in a 96-well U-shaped plate and centrifuged to discard the supernatant. 100 μL of a gradiently diluted h87D8 H2K4 e5 or anti-KLH isotype control antibody was added per well and the mixture was incubated on ice for 60 minutes. After the unbound primary antibody was washed away, 50 μL of a secondary antibody AlexaFluro647 anti-human IgG (Jackson Immuno Research #109-606-170) was added per well and the mixture was incubated on ice for 30 minutes. After the washing. […] Then excess secondary antibody was washed away with 0.5% BSA, the cells were resuspended by adding a PBS solution, and binding of the antibody to the cells was detected using a flow cytometer (Intellicyte iQue). The fluorescence value of a PI-negative cell population was analyzed. […]

FcγRIIIAF158 = molecular target: T6, FcγRIIIAF158 (UniProt P08637 17-208); assay: SPR (Biacore T200), antibody captured by anti-human IgG F(ab')2 on CM5, FcγRIIIA as analyte; FcγRIIIAF158
T6 construct: F158 allotype; also called FcγRIIIA158F
T6 sequence (P08637 17-208 limits assumed): as the sequence (P08637 17-208 F176V limits assumed) above, with V160F counted along it
Description: as §4

cynomolgus monkey CCR8 [9] = molecular target: T3, cynomolgus monkey CCR8; assay: flow cytometry on CHO-cynoCCR8 cells
Description: as §3

human CCR8 [10] = molecular target: T4, human CCR8; assay: flow cytometry on CHO-hCCR8 cells
Description: as §3

Binder | binding result (human CCR4) | binding result (cynomolgus monkey CCR8 [1]) | EC50 (human CCR8 [2]) | EC50 (cynomolgus monkey CCR8 [3]) | EC50 (cynomolgus monkey CCR8 [4]) | EC50 (human CCR8 [5]) | ADCC EC50 (nM), NK92-CD16A effectors, HEK293-hCCR8 targets, LDH release (human CCR8 [6]) | ADCC maximal lysis rate, NK92-CD16A effectors, HEK293-hCCR8 targets (human CCR8 [7]) | ADCC EC50 (nM), PBMC FcγRIIIA158F/F effectors, HEK293-hCCR8 targets (human CCR8 [8]) | ADCC EC50 (nM), PBMC FcγRIIIA158V/V effectors, HEK293-hCCR8 targets (human CCR8 [8]) | ADCC maximal lysis rate, PBMC FcγRIIIA158F/F effectors, HEK293-hCCR8 targets (human CCR8 [8]) | ADCC maximal lysis rate, PBMC FcγRIIIA158V/V effectors, HEK293-hCCR8 targets (human CCR8 [8]) | Kd (FcγRIIIAV158) | Kd (FcγRIIIAF158) | further results
B1 | no binding | binds |  |  |  |  |  |  |  |  |  |  |  |  | 
B2 |  |  | 1.08 nM | 2.75 nM | 1.32 nM | 0.88 nM | 0.07 nM |  |  |  |  |  |  |  | 
B3 | no binding | binds |  |  |  |  |  |  |  |  |  |  |  |  | 
B4 |  |  | 0.71 nM | 1.92 nM | 1.78 nM | 0.57 nM | 0.1 nM | 33% | 0.08 nM | 0.05 nM | 68% | 76% |  |  | 
B5 |  |  |  |  |  |  |  | 61% | 0.02 nM | 0.01 nM | 77% | 75% | 270 nM | 433 nM | ADCC half-maximal effective concentration EC50, NK92-CD16A effectors, HuT78 targets (human CCR8 [7]): 0.53 nM; half-maximal effective concentration EC50 of inhibition of the Ca2+ current signal, CHO-hCCR8 cells, CCL1 stimulus (human CCR8 [7]): 5.2 nM; EC50 (rabbit CCR8): 0.21 nM
B6 |  |  |  |  |  |  |  |  |  |  |  |  | 861 nM | 1300 nM | EC50 (cynomolgus monkey CCR8 [9]): 2.28 nM; EC50 (human CCR8 [10]): 0.68 nM

From patent US20250215097A1 (BEIJING TIANNUOJIANCHENG PHARMA TECH, published 2025)
